In the DeepSol protein solubility set:

Assay: soluble on expression in E. coli; label from the status in PepcDB or PDB records

Row | Sequence | soluble on expression in E. coli
1 | MGSDKIHHHHHHMHLELRHLRTIRAIHQAGGLARAADVLHMTQSALSHQVKGLEDQAGIELFVRRSKPLKLSAAGIRLLRLAERILPEIDALEDEFRALRSGRTGRLHIAIECHACFEWLFPVLELFRHAWPEIDVDIRAGLAFEALPALMREEVDLVISSDPVTVEGMVFNPLFDYHPTFVAAASNPLAAREFISAEDFRDQMLITYPVSRDRLDVFTEVLTPAKVEPRGTRQVELTAVILMLVASNRGVSVLPDWVLRDVRSHADYVTRPLGPKTVTKRLYAATRTEDATKPFMAHFLRLGRSEPVKLQRA | not soluble
2 | MGSDKIHHHHHHMEFIEFGYGTSTDENSLKAGAHAASDALKMMKKYSEKPNIVFLYSSPDYDPEEVLNGVKLILGNSVQIVGGSSKFQICGNKFLENGVSVGILGSKYFNTGMGVGLGISINPKESGKKAVKDAVENLGMLPKLLYVITDFCKCEEQVLKGIIEELGVTIPIFGGVSSDDFEFEHTYQYGNDVYLDSIVCVAFGGDIVPKISYNNYEYGENSGKLENIITKSEKRSIEEIGNISAVKRYIEISGYKGTVNELEKDPEFYLSHPLGILDTTGDIHLKGPISIKNKKLITGSNISNSNELKIENIDKNAIKNIFETNTSVLNNTQPHYEPALTFCNISSFLSEINPDEIEKLIEKSDINPFFGSSTFGEISLKKYGNYSMSMCSFAPDLVTISAKEGIHMFTKHPATKETLIKIHELGGSVKVEELAKSLGIHRRSAYDRIDPLLKYGFIEKDQAVIKITEFGKLLLKFEF | not soluble
3 | MAHHHHHHMAVASKGRIADVNQEELTKIGPKIDDVLSICLASFDSLRDMAFKFQYEQAAEKAAYQSGETKPDPMTQLMHVLQRMVDLTLGTAKAVYDQTLLEWRRRKGEGDADSPASQLASSQSMTSPEVLRNSSVEDFAAGSVAWIERGSHLSLLSLEVLSSVLLAHHYLRRDLQKYMLDVNVLDYLEKVFSMERDHELCYFPEGFKTECMRLIANLTHNNVDVNAALVERDTFLFNILSATQIDEENPGMVEWAEFALRNICESSAAAREKIRKLAPQGVTDQSREILAGRCSYSFSSTGKVQLHTQKPPLH | soluble
4 | MERPQPDSMPQDLSEALKEATKEVHTQAENAEFMRNFQKGQVTRDGFKLVMASLYHIYVALEEEIERNKESPVFAPVYFPEELHRKAALEQDLAFWYGPRWQEVIPYTPAMQRYVKRLHEVGRTEPELLVAHAYTRYLGDLSGGQVLKKIAQKALDLPSSGEGLAFFTFPNIASATKFKQLYESRMNSLEMTPAVRQRVIEEAKTAFLLNIQLFEELQELLTHDTKDQSPSRA | soluble
5 | MKVLVVGSGGREHALLWKAAQSPRVKRLYAAPGNAGMEALAELVPWNGDVEALADWALAEGIDLTLVGPEAPLVEGIADAFQARGLLLFGPTQKAAMIEGSKAFAKGLMERYGIPTARYRVFREPLEALAYLEEVGVPVVVKDSGLAAGKGVTVAFDLHQAKQAVANILNRAEGGEVVVEEYLEGEEATVLALTDGETILPLLPSQDHKRLLDGDQGPMTGGMGAVAPYPMDEATLRRVEEEILGPLVRGLRAEGVVYRGVVYAGLMLTREGPKVLEFNARFGDPEAQALLPLLENDLVELALRVAEGRLAGTRLSWKEGAAACVVLAAPGYPESPRKGIPLHVPEPPEGVLVFHAGTRREGGRLVSAGGRVLNVVGLGRDLKEALERAYAYIPQVGFPGAVYRRDIGRRALARLST | soluble
6 | ENSHNKARTSPYPGSKVERSQVPNEKVGWLVEWQDYKPVEYTAVSVLAGPRWADPQISESNFSPKFNEKDGHVERKSKNGLYEIENGRPRNPAGRTGLVGRGLLGRWGPNHAADPIITRWKRDSSGNKIMHPVSGKHILQFVAIKRKDCGEWAIPGGMVDPGEKISATLKREFGEEALNSLQKTSAEKREIEEKLHKLFSQDHLVIYKGYVDDPRNTDNAWMETEAVNYHDETGEIMDNLMLEAGDDAGKVKWVDINDKLKLYASHSQFIKLVAEKRDAHWSEDSEADCHAL | soluble
7 | MKNFVAGAQSGRKIQSGGCAIHCQDCSISQLCIPFTLNEQELDQLDNIIERKKPIQKSQVLFKAGDSLNSIYAIRSGTIKSYTISESGEEQITSFHLPGDLVGFDAITQMQHPSFAQALETAMVCEIPFDILDDLAGKMPKLRQQILRLMSSEIKSDQEMILLLSKMNAEERLAAFIHNLSKRYSARGFSAREFRLTMTRGDIGNYLGLTVETISRLLGRFQKLGVISVQGKYITINDLNGLIELTGTNKTKITLVK | not soluble
8 | MGSDKIHHHHHHMTKAKYQQIEEILRRQITNGHYQEGDLIPKEFDLAEKYQVSRPTIRHAVQDLVNQGYLERRKHVGTIVKQTKIGQEFTHVLQSYNSEMSQKGLIAQTQVLFFKKEKASAEVAKALDLTENAPVYKLTRLRSADGNPIVLVTTYLPASKLSDFEKIDFTQQSLYQELEKRSLPIVHVKRKLEVKSADEMTANLLNIEEKVPIFYFHTYGYTKGEVPLEYSIAMYRGDENYFVIDLKR | not soluble
9 | GGVVLRVVTVLEEPFVMVSENVLGKPKKYQGFSIDVLDALSNYLGFNYEIYVAPDHKYGSPQEDGTWNGLVGELVFKRADIGISALTITPDRENVVDFTTRYMDYSVGVLLRRGTSIQSLQDLSKQTDIPYGTVLDSAVYQHVRMKGLNPFERDSMYSQMWRMINRSNGSENNVLESQAGIQKVKYGNYAFVWDAAVLEYVAINDPDCSFYTVGNTVADRGYGIALQHGSPYRDVFSQRILELQQSGDMDILKHKWWPKNGQCDL | soluble
10 | MTNDFATVLRQFVEGLDLGIKPRLDYLTRQEDLAIYPMPGGKVNNEYMDGTREISLPFEIAIKTKNQELASTVMWTINSALSNFDLKLPSLNHSYTFISLDVEKPFLNDLSDQGFYIYVLDITAHLEIEGNN | soluble
11 | MARKLIDISVPLQNDVPADPPGNHPTIQYIDHQQGLPRMLQFFPGLKAEDLPDGQGWAVEQVSLSTHNGTHLDAPWHFHPTMNRGERALTIDEVPLDWCLQPGVKLDFRHLPDGYVVTAKDVENELERIGHTLAPLEIVVVNTSAGAKFGRPDYVNSGCGVGYEATMYLLERGVRLTGTDAWSWDAPFVFTAQRYAETKDASLIWEGHKASRHIGYCHLEKLHNLELLPATGFMVSCFPVKIERASAGWTRAVAILNDAAALEHHHHHH | soluble
12 | MNVREPEITSVTDLTDKELTQQWKIIDWKRVKEVVNNLQSRIASAAKSGNWKTVNKLSRLLTRSFYAKLLSIRKVTTNKGSRTPGIDGIIWSSSADKMRAALQLTNKGYRAKPLTRKYIRKKSGKLRPLSIPTMYDRAMQTLHSLVLGAIESAAGDKTSFGFKPYRSTKDAYAYLHLCLSKKVSPEWIVEGDIKACFDEISHNWILDNIPIDKRILKEFLKAGYIENYHLFPTEKGTPQGGPISPIIGNMSLNGLENALAMRFYSRSDGTIDKSHQNRRKVNYVRFADDLVVTADSPETALEIIDVIQAFLDPRGLKLSEEKTLVTNISEGFNFLGWNFRKYKGKLLPKPSKDSQKEIIKKIRDVLHKAKAWDQDRLIQTLNPIIRGWAEYHNHAVSSAIFNKLDEIVYNMLISWAKRRHSNKGFTWITTKYWHKSGKRKYVFCTELQTLERFSNAKIVRQRLASLNKNPFIDKEYFEQWKFMEYHRKKRITNPNSVLNLEHHHHHH | not soluble
13 | SNAFHPVYSVQLEQKLVEKFNLKRALISLDQPNTNEQRKQVAALVSSYLNNNLQEGMAVAVGQGQNVAAVADHAGIVTQRNARFVSAIGGTHRSGDIINADHICRRLAKKYGGSSETLYAPAYVNDPSLRSAFMEHATIKETLSQARKAEFALVGIGDMDENSHMVKLGFFTPKEFVEARLNDGIVGDIGGFDFFKLDGTDADTLMRGRVIGLEMEDLRQIPNVVAMASESRKALSIMGALRTGVIDVLATSVSCAMALLNLAENEE | soluble
14 | MAHHHHHHMLCRNVSRSYSARRRCRPSVCVAFGALLVEPPQAAYLRRCAVSSRATATAASLSSDHASLSVCKRCEHTTTIATPPERVLTTKEQVDELMDSFAEACELITDAKESVGTTYFADDMEDAEKQTHDVLNRWESLQAALERKGTAEELQKVRNMYDLKIKQLKAELEAVREAGGAG | not soluble
15 | MSYYHHHHHHNYNIPTTENLYFQGAMVAPAGEQGRSSTALSDNPFDAKAWRLVDGFDDLTDITYHRHVDDATVRVAFNRPEVRNAFRPHTVDELYRVLDHARMSPDVGVVLLTGNGPSPKDGGWAFCSGGDQRIRGRSGYQYASGDTADTVDVARAGRLHILEVQRLIRFMPKVVICLVNGWAAGGGHSLHVVCDLTLASREYARFKQTDADVGSFDGGYGSAYLARQVGQKFAREIFFLGRTYTAEQMHQMGAVNAVAEHAELETVGLQWAAEINAKSPQAQRMLKFAFNLLDDGLVGQQLFAGEATRLAYMTDEAVEGRDAFLQKRPPDWSPFPRYF | soluble
16 | MGSDKIHHHHHHMGVVETAEWLHLYYGRPEKLCEKFTKYIPLPKERLYRFLISKGMYRPVMRGEREIKELEKKEVWKELRAEYEKLKDWLKGPDVPVFILLSDSYNRTVQEEYNGRAGLSMRHVIFLFVCGRNSVEELKVLLAHEYHHICRLHQIETKETEYTLLDTMIMEGLAEQAVTERYSEKNNAPWTTYLSKEEAIYYWKNVVHERISIKRGTREHDILLNGFHSYPKMLGYALGFHIVKDCVTLEGEDTLSLLPIDAKEILNKANTFHI | not soluble
17 | MAHHHHHHMLSIGMTAMDTEGDVTQMELSALLVHIERCERLLRHPTLLSRLPDEGETIRSRHALYVAERSRREVGGDASSSRKENDAVEGSVRQVERQISQMTLSTEEKSEKTATMPMECHASLNTDGWTVGAGGKAVESYEDVARAVGEKHRHSRIPVEMIVRQTFGGSLCEAEIQRMLCDVPPNFFLTHDETISMQRKLLSEERLEALTRLRNQRHAEL | not soluble
18 | MKIRQEKPAEYQAVERLTYQAFKELNLTENWRPTEHFIVHLLRESADFIPELSLVSETDQGKLTGHIMSSKAKLRLPDHTEKAVLTVGPLSVHPEAQNTGVGSALIKHSVQKAKELGIGGLIILGHPTYYTKFGFVPATTFQITLPEKETSEALLALELLPGYFGTSGGEWHFSTCFAYPETHPAELEAFEAELGINE | not soluble
19 | MSKFSLKLGSKTLKKNISKKTKKKNSLQKANLFDWDDAETASLSHKPQSKIKIQSIDKFDLDEESSSKKKLVIKLSENADTKKNDAPLVEYVTEKEYNEVPVEEFGDALLRGMGWESDSEQDSKGDKTQSRNKDVSNVSQIHPDGLGIGAKLNKAINVEEASFMPVVKIDKITGTKVDDDKKNKS | soluble
20 | MNQKYILSANNNSLIEEIHNTVQSIGYCIVRGLNLNHLDGSRRNKKLFDFLSQLGMLTNHKGDGFKSIFWDIKY | not soluble
21 | MSLIKVPCMQITNMHCSGQTVSLAAGDYHATIVTVGAGLAELTFQGCHLVIPHKPEEMPLAHLGKVLIPWPNRIANGCYRYQGQEYQLPINEHSSKAAIHGLLAWRDWQISELTATSVTLTAFLPPSYGYPFMLASQVVYSLNAHTGLSVEIASQNIGTVAAPYGVGIHPYLTCNLTSVDEYLFQLPANQVYAVDEHANPTTLHHVDELDLNFTQAKKIAATKIDHTFKTANDLWEMTITHPQQALSVSLCSDQLWVQVYSGEKLQRQGLAVEPMSCPPNAFNSGIDLLLLESGKPHRLFFNIYGQRKMGHHHHHHSH | not soluble
22 | MANPTVIKLQDGNVMPQLGLGVWQASNEEVITAIQKALEVGYRSIDTAAAYKNEEGVGKALKNASVNREELFITTKLWNDDHKRPREALLDSLKKLQLDYIDLYLMHWPVPAIDHYVEAWKGMIELQKEGLIKSIGVCNFQIHHLQRLIDETGVTPVINQIELHPLMQQRQLHAWNATHKIQTESWSPLAQGGKGVFDQKVIRDLADKYGKTPAQIVIRWHLDSGLVVIPKSVTPSRIAENFDVWDFRLDKDELGEIAKLDQGKRLGPDPDQFGG | soluble
